Results on five molecules are retold here after patent US20240325555A1 (LANOVA MEDICINES, published 2024).

A word on the EC50: it is the concentration needed to bring the measured effect to its halfway point. Lower therefore signals an effect from little substance.

The target in assay [1] is T1, human LIV-1 (human, UniProt Q13433 29-755).
T1 construct: whole, on cells; also called H-LIV1
T1 sequence (looked up): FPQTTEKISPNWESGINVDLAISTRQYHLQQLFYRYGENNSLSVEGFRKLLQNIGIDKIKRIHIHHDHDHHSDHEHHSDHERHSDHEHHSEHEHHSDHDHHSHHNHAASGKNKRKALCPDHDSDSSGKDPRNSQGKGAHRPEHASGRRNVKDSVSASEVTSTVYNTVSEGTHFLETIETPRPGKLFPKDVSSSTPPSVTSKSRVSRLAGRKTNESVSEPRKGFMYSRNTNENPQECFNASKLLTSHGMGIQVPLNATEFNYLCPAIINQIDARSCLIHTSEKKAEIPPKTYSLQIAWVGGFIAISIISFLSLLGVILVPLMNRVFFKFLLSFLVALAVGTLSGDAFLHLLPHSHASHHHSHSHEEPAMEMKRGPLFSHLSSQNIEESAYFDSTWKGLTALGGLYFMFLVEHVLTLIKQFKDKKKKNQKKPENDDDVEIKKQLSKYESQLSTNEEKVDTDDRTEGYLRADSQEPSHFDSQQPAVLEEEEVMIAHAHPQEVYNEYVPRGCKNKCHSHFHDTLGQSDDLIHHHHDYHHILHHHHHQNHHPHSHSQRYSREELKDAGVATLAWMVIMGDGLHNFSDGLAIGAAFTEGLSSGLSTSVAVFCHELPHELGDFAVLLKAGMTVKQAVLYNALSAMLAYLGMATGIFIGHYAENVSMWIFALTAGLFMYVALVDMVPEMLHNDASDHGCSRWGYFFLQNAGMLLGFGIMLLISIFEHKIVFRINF
The assay can be described thus: FACS, HEK293/H_LIV-1 cells. Here is the method: (§1) In this example, cell based binding of chimeric Abs on human and cyno LIV-1 over-expressing HEK 293 cells were assessed using flow cytometry.
(§2) Briefly, cells were incubated with chimeric Abs (from 100 nM, 5 folds dilution, 8 points). After incubation at 4° C. for 60 minutes, the cells were washed with 2% FBS/PBS buffer twice, then stained with fluorescent conjugated secondary antibody at 4° C. for 30 minutes. After that the cells were washed twice and resuspended in 80 μL of 2% FBS/PBS buffer. Fluorescent signal of binding was detected using Agilent. The EC50 was calculated using the GraphPad Software (LaJolla, CA).
(In general: In flow cytometry, cells or beads pass a laser one at a time.)

Assay [2] deals with T2, cynomolgus LIV-1 (cynomolgus, UniProt A0A2K5WH46 30-741). As to the kind of experiment: FACS, HEK293/Cyno_LIV-1 cells. As to the method: as §1, §2
Assay [3] addresses T1, human LIV-1. As to the kind of experiment: cell-based or functional assay.
The target in assay [4] is T1, human LIV-1. The assay can be described thus: cell-based or functional assay. The source holds these as a separate data set.
The target in assay [5] is T1, human LIV-1. As to the kind of experiment: cell-based or functional assay. The source holds these as a separate data set.
For assay [6], the target named is T1, human LIV-1. The assay can be described thus: FACS, human LIV-1 cells. As to the method:
In this example, cell based binding of humanized antibodies (hu Abs) on human LIV-1-expressing cells were assessed using flow cytometry.
Cell based binding of hu-Abs on human LIV-1 expressing cells were assessed using flow cytometry. Briefly, the HEK293/H_LIV-1 cells were incubated with hu-Abs (from 100 nM, 6 folds dilution, 8 points). After incubation at 4° C. for 60 minutes, the cells were washed with FACS buffer twice, then stained with fluorescent conjugated secondary antibody at 4° C. for 30 minutes. After that the cells were washed twice and analyzed by flow cytometry.

In assay [7] the target is T2, cynomolgus LIV-1. The assay can be described thus: FACS, cyno LIV-1 cells.
Target sequence in this assay (A0A2K5WH46 entry or part of it): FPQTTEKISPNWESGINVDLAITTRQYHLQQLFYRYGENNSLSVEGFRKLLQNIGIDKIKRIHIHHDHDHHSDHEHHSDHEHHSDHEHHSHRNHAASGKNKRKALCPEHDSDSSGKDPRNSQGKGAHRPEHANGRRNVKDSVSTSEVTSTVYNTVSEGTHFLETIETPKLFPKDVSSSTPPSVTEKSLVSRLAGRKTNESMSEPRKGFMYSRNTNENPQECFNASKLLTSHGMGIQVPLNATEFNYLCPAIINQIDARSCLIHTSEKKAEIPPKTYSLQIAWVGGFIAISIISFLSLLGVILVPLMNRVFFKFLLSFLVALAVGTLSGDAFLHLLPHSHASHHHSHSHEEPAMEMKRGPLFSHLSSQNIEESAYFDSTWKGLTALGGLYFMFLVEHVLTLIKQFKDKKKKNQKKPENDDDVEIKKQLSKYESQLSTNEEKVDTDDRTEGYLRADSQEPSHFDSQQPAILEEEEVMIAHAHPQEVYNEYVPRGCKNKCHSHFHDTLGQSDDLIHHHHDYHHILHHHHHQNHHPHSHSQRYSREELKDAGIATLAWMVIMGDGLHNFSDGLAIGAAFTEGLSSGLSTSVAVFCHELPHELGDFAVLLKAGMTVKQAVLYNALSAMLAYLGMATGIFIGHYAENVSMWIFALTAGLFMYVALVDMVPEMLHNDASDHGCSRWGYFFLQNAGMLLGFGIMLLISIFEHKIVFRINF

B1: 47G1B10 (antibody, V domains shown)
VH: QVQLKQSGPGLVQPSQSLSITCTVSGFSLTTYGVHWVRQSPGKGLEWLGVIWTGGTTDYNAAFISRLSISKDNSKSQVFFKMNSLQANDTAIYYCARGPSSYWGQGTLVTVSA
VL: DIVMTQSQKFMSTSVGDRVSVTCKASQNVDTNVVWYQQKPGQSPKALIHSASYRYSGVPDRFTGSGSGTDFTLTISNVQSEDLAEYFCQQYNNYPWTFGGGTKLEIK
notes: Tested as chimeric antibody
Consider B1, for which, in assay [1], the concentration for a half-maximal effect (EC50) was found to be 0.37 nM and the “Top (MFI)” value is 60900 MFI. For the same molecule, in assay [2], the EC50 worked out at 0.3 nM and the “Top (MFI)” value is 36700 MFI. In assay [3], the “ADCC reporter EC50” value is 0.3 nM and the “ADCC reporter Top (RFU)” value came out at 191000 RFU. In addition, in assay [4], the “Cell viability(%)” value came to 17.7% and the “Cytotoxicity IC50” value came out at 1.53 nM. Also, in assay [5], the “Internalization EC50” value is 10.1 nM and the “Internalization Top (RFU)” value came out at 178000 RFU.

B2: 127A2B9 (antibody, V domains shown)
VH: EVQLQESGPSLVKPSQTLSLTCSVTGDSITSGYWNWIRKLPGNKLEYMGYISYSGSTYYNPSLKSRISITRDTSKNQYYLQLNSVTTEDTATYYCARIYYDYDGYFDVWGAGTTVTVSS
VL: DIVMTQAAPSVPVTPGESVSISCRSSKSLLHSNGNTFLYWFLQRPGQSPQLLIYRMSNLASGVPDRFSGSGSGTAFTLRISRVEAEDVGVYYCMQHLEYPYTFGGGTKLEIK
notes: Tested as chimeric antibody
For B2, in assay [1], the concentration giving a half-maximal response (EC50) amounted to 4.03 nM and the “Top (MFI)” value is 34600 MFI. Besides, in assay [2], a half-maximal effect (EC50) was put at 3.92 nM and the “Top (MFI)” value amounted to 21700 MFI. Also, in assay [4], the “Cell viability(%)” value was determined as 17.8% and the “Cytotoxicity IC50” value worked out at 2.25 nM. In assay [5], the “Internalization EC50” value amounted to 51.8 nM and the “Internalization Top (RFU)” value stood at 558000 RFU.

B3: 290F10G10.p1.Z16 (antibody, V domains shown)
VH: EIQLVQSGAEVKKPGASVKVSCKASGYTFTSYWIHWVREAPGQGLEWIGTIYPGDADTRSTQKFKDKATVTADKSTSTVYMELSSLRSEDTAVYYCTRSLIHDDYDKYYFDYWGQGTTVTVSS
VL: DIQMTQSPSSLSASVGDRVTITCKARQDINKYIAWYQQKPGKAPKLLIYYTSILQPGVPSRFSGSGSGRDYTFTISSLQPEDIATYYCLQYDYFFTFGGGTKVEIK
Turning to B3, in assay [6], the EC50 was determined as 0.43 nM and the “Top (MFI)” value was found to be 7440 MFI. Moreover, in assay [7], it took 0.61 nM to reach a half-maximal effect (EC50) and the “Top (MFI)” value was determined as 6920 MFI.

B4: 290F10G10.p1.Z18 (antibody, V domains shown)
VH: EIQLVQSGAEVKKPGASVKVSCKASGYTFTSYWIHWVREAPGQGLEWIGTIYPGDADTRSTQKFKDKATVTADKSTSTVYMELSSLRSEDTAVYYCTRSLIHDDYDKYYFDYWGQGTTVTVSS
VL: DIQMTQSPSSLSASVGDRVTITCKARQDINKYIAWYQHKPGKGPKLLIHYTSILQPGIPSRFSGSGSGRDYTFTISSLQPEDIATYYCLQYDYFFTFGGGTKVEIK
Regarding B4, in assay [6], the response was half-maximal at 0.36 nM (EC50) and the “Top (MFI)” value was found to be 7430 MFI. Further, in assay [7], it took 0.56 nM to reach a half-maximal effect (EC50) and the “Top (MFI)” value turned out to be 7040 MFI.

B5: 290F10G10.p1.Z17 (antibody, V domains shown)
VH: EIQLVQSGAEVKKPGASVKVSCKASGYTFTSYWIHWVREAPGQGLEWIGTIYPGDADTRSTQKFKDKATVTADKSTSTVYMELSSLRSEDTAVYYCTRSLIHDDYDKYYFDYWGQGTTVTVSS
VL: DIQMTQSPSSLSASVGDRVTITCKARQDINKYIAWYQQKPGKAPKLLIHYTSILQPGIPSRFSGSGSGRDYTFTISSLQPEDIATYYCLQYDYFFTFGGGTKVEIK
With B5, the EC50 in assay [6] was determined as 0.39 nM; in assay [7], 0.51 nM. Further, the “Top (MFI)” value in assay [6] was 7520 MFI; in assay [7], 6820 MFI.
